Laboratory results: paper PMC9482650, “Quantitative fragmentomics allow affinity mapping of interactomes” (Nature Communications, 2022)

T1: DFNB31_2, Q9P202
T1 sequence (Q9P202 274-371, limits assumed, looked up): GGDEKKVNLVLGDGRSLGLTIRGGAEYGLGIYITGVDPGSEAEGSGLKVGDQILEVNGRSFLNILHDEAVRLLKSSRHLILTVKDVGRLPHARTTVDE

T2: NHERF3_1, Q5T2W1
T2 sequence (Q5T2W1 4-100, limits assumed, looked up): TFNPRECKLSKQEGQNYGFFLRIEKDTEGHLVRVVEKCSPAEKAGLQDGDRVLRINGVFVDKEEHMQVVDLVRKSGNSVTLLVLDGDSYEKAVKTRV

T3: SHANK1, Q9Y566
T3 sequence (Q9Y566 658-767, limits assumed, looked up): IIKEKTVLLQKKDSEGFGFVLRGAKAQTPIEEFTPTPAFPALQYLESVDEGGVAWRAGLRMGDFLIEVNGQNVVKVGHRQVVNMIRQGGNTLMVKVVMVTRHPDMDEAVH

T4: MPP2, Q14168
T4 sequence (Q14168 180-250, limits assumed, looked up): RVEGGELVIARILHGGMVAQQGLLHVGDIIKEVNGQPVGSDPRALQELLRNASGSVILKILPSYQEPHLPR

T5: TIAM2, Q8IVF5
T5 sequence (Q8IVF5 885-986, limits assumed, looked up): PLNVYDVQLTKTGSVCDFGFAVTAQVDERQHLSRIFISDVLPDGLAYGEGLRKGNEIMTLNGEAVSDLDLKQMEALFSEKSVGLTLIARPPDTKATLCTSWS

T6: NHERF3_3, Q5T2W1
T6 sequence (Q5T2W1 238-333, limits assumed, looked up): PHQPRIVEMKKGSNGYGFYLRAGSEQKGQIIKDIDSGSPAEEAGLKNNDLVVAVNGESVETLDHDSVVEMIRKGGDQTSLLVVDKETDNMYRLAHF

T7: PCLO, Q9Y6V0
T7 sequence (Q9Y6V0 4491-4600, limits assumed, looked up): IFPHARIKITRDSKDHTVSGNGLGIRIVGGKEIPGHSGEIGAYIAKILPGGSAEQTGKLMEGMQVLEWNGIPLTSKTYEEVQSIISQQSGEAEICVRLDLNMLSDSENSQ

T8: GRIP1_5, Q9Y3R0
T8 sequence (Q9Y3R0 568-668, limits assumed, looked up): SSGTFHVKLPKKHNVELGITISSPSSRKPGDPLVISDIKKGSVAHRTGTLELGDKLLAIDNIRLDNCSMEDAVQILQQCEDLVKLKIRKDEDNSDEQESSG

T9: LNX2_2, Q8N448
T9 sequence (Q8N448 334-432, limits assumed, looked up): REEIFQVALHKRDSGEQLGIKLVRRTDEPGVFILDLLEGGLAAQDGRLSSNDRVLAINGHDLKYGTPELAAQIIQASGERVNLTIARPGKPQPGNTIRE

T10: DLG3_3, Q92796
T10 sequence (Q92796 374-475, limits assumed, looked up): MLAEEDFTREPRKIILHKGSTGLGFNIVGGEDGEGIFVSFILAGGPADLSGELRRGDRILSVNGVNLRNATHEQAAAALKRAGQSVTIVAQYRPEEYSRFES

T11: TJP3_3, O95049
T11 sequence (O95049 375-456, limits assumed, looked up): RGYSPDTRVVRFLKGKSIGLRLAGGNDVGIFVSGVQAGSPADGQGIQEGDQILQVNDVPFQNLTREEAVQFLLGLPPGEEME


What was measured:
Experiment in all cases: holdup assay
Design in all cases: key: below the threshold = too weak to quantify, mostly under pKd 3.1 to 4
Conditions in all cases: plain residues with an end cap or a label only (N-terminal biotin on a linker: ado-ado)
[1] = molecular target: T1, DFNB31_2, Q9P202
[2] = molecular target: NOS1, P29475
[3] = molecular target: FRMPD2_2, Q68DX3
[4] = molecular target: T2, NHERF3_1, Q5T2W1
[5] = molecular target: DLG4_3, P78352
[6] = molecular target: T3, SHANK1, Q9Y566
[7] = molecular target: T4, MPP2, Q14168
[8] = molecular target: MAGI2_2, Q86UL8
[9] = molecular target: T5, TIAM2, Q8IVF5
[10] = molecular target: T6, NHERF3_3, Q5T2W1
[11] = molecular target: IL16_1, Q14005
[12] = molecular target: NHERF4_1, Q86UT5-2
[13] = molecular target: DLG1_3, Q12959
[14] = molecular target: Inadl_8, Q8NI35
[15] = molecular target: GRID2IP_1, A4D2P6
[16] = molecular target: T7, PCLO, Q9Y6V0
[17] = molecular target: Inadl_6, Q8NI35
[18] = molecular target: PICK1, Q9NRD5
[19] = molecular target: TJP1_3, Q07157
[20] = molecular target: GORASP1, Q9BQQ3
[21] = molecular target: T8, GRIP1_5, Q9Y3R0
[22] = molecular target: T9, LNX2_2, Q8N448
[23] = molecular target: PTPN3, P26045
[24] = molecular target: DLG4_1, P78352
[25] = molecular target: T10, DLG3_3, Q92796
[26] = molecular target: MAGI2_6, Q86UL8
[27] = molecular target: T11, TJP3_3, O95049

Chain of GORASP1, Q9BQQ3 (Q9BQQ3 1-208): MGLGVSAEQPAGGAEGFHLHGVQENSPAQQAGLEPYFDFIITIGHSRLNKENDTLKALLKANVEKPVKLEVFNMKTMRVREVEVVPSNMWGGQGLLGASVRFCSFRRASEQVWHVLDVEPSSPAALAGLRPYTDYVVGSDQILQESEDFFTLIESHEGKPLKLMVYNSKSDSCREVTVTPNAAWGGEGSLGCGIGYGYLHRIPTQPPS
Chain of DLG4_3, P78352 (P78352 306-403): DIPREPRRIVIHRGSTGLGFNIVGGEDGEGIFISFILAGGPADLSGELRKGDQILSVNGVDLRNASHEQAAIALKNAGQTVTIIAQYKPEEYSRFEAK
Chain of FRMPD2_2, Q68DX3 (Q68DX3 944-1038): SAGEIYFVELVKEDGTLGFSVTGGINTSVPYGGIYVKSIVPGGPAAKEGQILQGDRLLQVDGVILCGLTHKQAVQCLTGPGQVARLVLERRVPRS
Chain of PICK1, Q9NRD5 (Q9NRD5 17-115): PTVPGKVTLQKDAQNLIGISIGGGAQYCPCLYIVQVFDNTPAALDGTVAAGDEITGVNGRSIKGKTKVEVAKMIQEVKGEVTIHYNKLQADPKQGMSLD
Chain of Inadl_6, Q8NI35 (Q8NI35 1058-1167): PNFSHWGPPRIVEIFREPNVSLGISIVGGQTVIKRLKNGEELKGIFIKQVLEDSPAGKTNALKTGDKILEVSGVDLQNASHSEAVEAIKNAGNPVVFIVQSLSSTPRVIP
Chain of DLG4_1, P78352 (P78352 62-152): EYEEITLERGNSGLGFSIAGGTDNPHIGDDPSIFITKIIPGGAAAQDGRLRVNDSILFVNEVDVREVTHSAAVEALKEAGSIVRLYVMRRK
Chain of PTPN3, P26045 (P26045 505-587): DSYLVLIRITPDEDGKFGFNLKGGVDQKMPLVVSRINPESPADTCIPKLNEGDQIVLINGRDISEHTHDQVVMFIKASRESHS
Chain of NHERF4_1, Q86UT5-2 (Q86UT5 other isoform, or with tags, fused parts or gaps): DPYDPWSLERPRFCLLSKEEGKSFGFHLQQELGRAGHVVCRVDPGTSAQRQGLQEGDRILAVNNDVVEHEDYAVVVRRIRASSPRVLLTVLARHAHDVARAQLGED
Chain of MAGI2_2, Q86UL8 (Q86UL8 410-522): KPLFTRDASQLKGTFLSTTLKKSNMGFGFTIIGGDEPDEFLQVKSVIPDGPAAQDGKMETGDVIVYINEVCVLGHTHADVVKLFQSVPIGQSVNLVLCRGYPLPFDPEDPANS
Chain of NOS1, P29475 (P29475 9-101): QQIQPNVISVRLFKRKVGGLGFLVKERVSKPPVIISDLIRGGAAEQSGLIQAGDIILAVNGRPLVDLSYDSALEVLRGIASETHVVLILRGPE
Chain of TJP1_3, Q07157 (Q07157 416-512): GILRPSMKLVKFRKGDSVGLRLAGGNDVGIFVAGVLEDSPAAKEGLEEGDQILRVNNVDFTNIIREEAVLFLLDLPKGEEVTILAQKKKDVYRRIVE
Chain of Inadl_8, Q8NI35 (Q8NI35 1425-1530): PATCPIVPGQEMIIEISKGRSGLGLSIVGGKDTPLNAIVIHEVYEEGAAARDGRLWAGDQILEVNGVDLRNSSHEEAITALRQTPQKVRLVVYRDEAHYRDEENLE
Chain of IL16_1, Q14005 (Q14005 210-306): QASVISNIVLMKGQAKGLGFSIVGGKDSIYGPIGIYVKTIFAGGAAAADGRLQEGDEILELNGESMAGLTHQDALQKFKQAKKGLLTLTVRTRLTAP
Chain of GRID2IP_1, A4D2P6 (A4D2P6 1-87): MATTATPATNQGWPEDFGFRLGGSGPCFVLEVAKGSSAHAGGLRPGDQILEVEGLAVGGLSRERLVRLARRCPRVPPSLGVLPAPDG
Chain of DLG1_3, Q12959 (Q12959 457-571): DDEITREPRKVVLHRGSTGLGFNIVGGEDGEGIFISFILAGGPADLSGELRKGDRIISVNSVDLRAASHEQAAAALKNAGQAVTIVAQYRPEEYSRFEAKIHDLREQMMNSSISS
Chain of MAGI2_6, Q86UL8 (Q86UL8 1141-1229): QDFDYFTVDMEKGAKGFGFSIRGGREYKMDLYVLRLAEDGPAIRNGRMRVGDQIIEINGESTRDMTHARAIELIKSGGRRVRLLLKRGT

Row | Binder | pKd [1] | pKd [2] | pKd [3] | pKd [4] | pKd [5] | pKd [6] | pKd [7] | pKd [8] | pKd [9] | pKd [10] | pKd [11] | pKd [12] | pKd [13] | pKd [14] | pKd [15] | pKd [16] | pKd [17] | pKd [18] | pKd [19] | pKd [20] | further results
1 | RRISSLESEV [GRIN2C, Q14957] | below the threshold | 3.96 | 3.85 | 3.82 | 3.78 | below the threshold | below the threshold | 4.58 | 4.13 | below the threshold | 4.55 | 3.71 | 4.09 | 3.58 | below the threshold | below the threshold | below the threshold | below the threshold | below the threshold | below the threshold | pKd [21]: below the threshold; pKd [22]: below the threshold; pKd [23]: 4.98; pKd [24]: 4.68; pKd [25]: 4.11; pKd [26]: 4.31; pKd [27]: below the threshold
2 | PPYRHRNTVV [ERBB4, Q15303] | below the threshold | 3.64 | below the threshold | below the threshold | 4.23 | below the threshold | below the threshold | 4.6 | below the threshold | below the threshold | below the threshold | below the threshold | 4.01 | 4.29 | 3.89 | below the threshold | below the threshold | below the threshold | below the threshold | 4.19 | pKd [21]: below the threshold; pKd [22]: 4.69; pKd [23]: 3.89; pKd [24]: 4.88; pKd [25]: 4.16; pKd [26]: below the threshold; pKd [27]: below the threshold
3 | LGRSTPQSEV [DGKH, Q86XP1] | below the threshold | below the threshold | below the threshold | below the threshold | below the threshold | below the threshold | below the threshold | 3.58 | below the threshold | below the threshold | below the threshold | below the threshold | below the threshold | 3.98 | below the threshold | below the threshold | below the threshold | below the threshold | below the threshold | below the threshold | pKd [21]: below the threshold; pKd [22]: below the threshold; pKd [23]: 4.12; pKd [24]: 3.85; pKd [25]: below the threshold; pKd [26]: below the threshold; pKd [27]: below the threshold

Continued, in another order:

Row | pKd [1] | pKd [2] | pKd [3] | pKd [4] | pKd [5] | pKd [6] | pKd [7] | pKd [8] | pKd [9] | pKd [10] | pKd [11] | pKd [12] | pKd [13] | pKd [14] | pKd [15] | pKd [16] | pKd [17] | pKd [18] | pKd [19] | pKd [20] | Binder | further results
4 | below the threshold | below the threshold | below the threshold | below the threshold | below the threshold | below the threshold | below the threshold | below the threshold | 3.97 | below the threshold | below the threshold | below the threshold | 3.69 | below the threshold | below the threshold | below the threshold | below the threshold | below the threshold | below the threshold | below the threshold | RRLPGKETMA [GRIK2, Q13002] | pKd [21]: below the threshold; pKd [22]: below the threshold; pKd [23]: below the threshold; pKd [24]: below the threshold; pKd [25]: below the threshold; pKd [26]: below the threshold; pKd [27]: below the threshold
5 | below the threshold | below the threshold | below the threshold | below the threshold | below the threshold | below the threshold | below the threshold | below the threshold | 4.04 | below the threshold | below the threshold | below the threshold | below the threshold | below the threshold | below the threshold | below the threshold | below the threshold | below the threshold | below the threshold | 4.74 | YNNCLEILRV [DCAF7, P61962] | pKd [21]: below the threshold; pKd [22]: 4.91; pKd [23]: below the threshold; pKd [24]: below the threshold; pKd [25]: below the threshold; pKd [26]: below the threshold; pKd [27]: below the threshold
